# According to the nanobody polyreactivity screen of Harvey et al. (2022):
# Assay: yeast display, Sf9 membrane polyspecificity reagent, FACS + sequencing; frameworks hold sequencing errors
# How it was run: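 Using colony PCR, genes from sorted yeast display clones were amplified, then sequenced on MiSeq at 2 × 250 and filtered by CDR length. The clones had been stained with 10% biotinylated, detergent-solubilized Sf9 membrane reagent for 1 hour at 4 °C and sorted by FACS into low and high (top ~1%) gates on anti-HA and streptavidin fluorescence. Polyreactivity labels come from the gate of origin.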
row,Sequence,polyreactivity (PSR sort gate)
1,QVQLVESGGGLVQAGGSLRLSCAASGVTFYYYAMGWYRQAPGKERELVASITSTDSTTYADSVKGRFTISRDNAKNTVYLQMNRLKPEDTAVYYCNRLYNHWYGGLDYWGQGTQVTVSS,high polyreactivity
2,QVQLVESGGGLVQAGASHRLSCAASGRIFGGYAMGSDRQAPGKERELVAAISSRGGSTYYADSVKGRFTISRDNAKNTVYLLMNSLKPEETAVYYCAADGRVKGWGQGTQVTVSS,high polyreactivity
3,QVQLVESGGGLVQAGGSLRLSCAASGSIFGYYAMGWYRQAPGKERELVAAISSSGASTYYADSVKGRFTISRDNAKNTVYLQMNSLKPEDTAVYYCNAARRYPTRGGYWGQGTQVTVSS,high polyreactivity
4,QVQLVESGGGLVLAGGSLRLSCAASGSIFYVYAMGWYRQAPGKERELVASITWSGGRTYYADSVKGRFTISRDNAKNTVYLQMNSLKPEDTAVYYCNAVSFGARTTSYRYGSCGQGTQVTVSS,high polyreactivity
5,QVQLVESGGCLDQAGGSLRLSCAASGSIFYYYTMGWSRQAPGKEREFVATITYSGGSTYYADSVKGRITISRDNAKYTVYLQMNSLKPEDTAVYYCNARPRYYDWVDYWGQGTQVTVSS,low polyreactivity
6,QVHLVESGGGLVLAPASLRLSSPASGHNQGIYAMGWYRQAPGKEREFVAAISRGGGSTYYADSVKGRFTISRDNAKNTVYLQMNSLNPEDTAVYYCNAVRDRYGVFPYYYWGQGTQVTVSS,high polyreactivity
7,QVQHVESGGGLVQAGGSHPLSCAASGRIFQYNALGWYRKATGKERELLAAISLSGVRTYYADSVKGRFTISRDNAKNTVYLQMNSLKPEDTAVYYCAAVRFDRARGSPYPDRVGVYSWGQGTQVTVSS,high polyreactivity
8,QVQLVESGGGLVQAGGSLRLSCAASGSIFFPYLMGWYRQAPGKERELVAAITYRAGSTYYADSVKGRFTISRDNAKNTVYLQMNSLKPEDTAVYYCAAVVSRSGEFGYWGQGTQVTVSS,low polyreactivity
9,QVQLVESGGGLVQAGGSLRLSCAASGRIFSYYAMGWYRQAPGKERELVAAINWSGSSTYYADSVKGRFTISRDNAKNTVYLQMNSLKPEDTAVYYCAAGVPKNGQAGYDYWGQGTQVTVSS,high polyreactivity
10,QVQLVDSGGGLVQAGGSLRLSCAASGLIFAYYAMGWYRKAPGKERELVAAISSVGSTYYADSVKGRFTISRDNAKNTVYLQMNSLKPEDTSVYYCAAALYPYYWPEYNYWGQGTQVTVSS,high polyreactivity
11,QVQLVASGGGLVQEGGSLRLSCAASGSTFYVNAMGWYRPAAGKERELVAAISLSGGRTYYADSVKGRFTISRDNAKNPVYLQMNSLNQEDTAVYYCAARDSARYYWGQGTQVTVSS,high polyreactivity
12,QVQLVESGGGLVQAGGSLRLSCAASGSTRIYDMGCYRQAPAKERELVAAISSTGSTYYADSVKGRFTISRDNAKNTVYLQMNSLKPEDTAVYYCAAARYYRYDRYYSWGQGTQVTVTS,high polyreactivity
13,QFQLVESGGGLVQAGGSLRLSCAASGNTFTKYAMGWYRQAPGKDRELLAGITRGGSTNYADSVKGRFTISRDNAKNTVYFQMNSLKPEDTAVYYCNARPVYGSRFYSAVRMEYWGQGTQVTVSS,low polyreactivity
14,QLQLVESGGGLVQAGGSLRLSCAATGRIFRFYALGWYRQATGKERELVADISRRGGSTYFADSVKGRFTISRDNAKNTVYVQMTSLKPEDTAVYYCNARWYRTGSTYHEDYWGQGTQVTVSS,high polyreactivity
15,QDQLVESGGGLVQAGGSLRLSCAASGSIFRPNAMGWYRQAHGKERELVAAITYSTGSTYYADSVKGRFTISRDNAKNTVYLQMNSLKPEDTAVYYCAARFWRWLFPFDYLGQGTQVTVSS,high polyreactivity
16,QVQLVESWGGLVQAGGSLRLSCAASGGTFSANAMGWYRQAPGKERELVAAISTSGGSTHYADSVKGRFTISRDSAKNTVYLQMNSLNPEDTAVYYCAARLYSYRRQYGYWGHGTQVTVSS,high polyreactivity
17,QVQLVDSGGGLVQAGGSLRLSCAASGSTFPDNAMGWYRQAPGKERALVAAIRWTGGSTYYADSVKGRFTISRDNAKNTVYLQMNSLKPEDTAVYYCNTAYTVSWRSPYDYWGQGTQVTVSS,high polyreactivity
18,QVQLVESVGGLVQAGGSLRLSCAASGSIFNYYAMGWYRQAPGKERELVAAITTSGGNTYYADSVKGRFTISRDNPKNTVYLQMNSLKPEDTAVYYCAADYWASGGEYDYWGQGTQVTVSS,low polyreactivity
19,QVQLVESGGGLVQAGGSLRLSCAASGRIFYYYAMGWYRQAPGKERELVASINSVGTTTYADSVKGRVTISRDNAKNTVYLQMNSLKPEDTAVYYCARDTGSIYYDGYEYDYWGQGTQVTVSS,low polyreactivity
20,QVQLVESGGGLVEAGGSLRLSCAASGIIFYGYDMGWYREAPGKERELVAGITVSGGTYYADSVKGRFTISRDNAKNTVYLQMNSLKPEDTAVYYSARDQWPYVHGKYAYWGQGTQVTVSS,low polyreactivity
21,QVQLVESGGGLVQAGGSLRLSCAASGFIFIGYAMGWYRHAPGKERELVAAISWSGGSTYYADSVKGRFTISRDNAKNTVYLQMNSLKPEDTAVYYCNAVLYRFAYNYWGQGTQVTVSS,low polyreactivity
22,QVQLVESGGGLVQAGRSLRLSCAASGSTFSVNAMGWYRQAPGKERELVAAIPSGGNTYADSVKGRFTISRDNAKNTVYLQMNSLKPEDTAVYYCAVDNRDLFFYPGGFDYWGQGTQVTVSS,low polyreactivity

row,Sequence,polyreactivity (PSR sort gate)
1,QVQLVESGGGLVQAGGSLRLSCAASGYIFGYNAMGWYRQAAGQERELVAAITYSGGNTYYADSVKGRFTISRDNANNTVYLQMNSLKPEDTAVYYCAADFLYGAEGNEYWGQGTQVTVSS,high polyreactivity
2,QVQLVESGGGLVQAGGSLRLSCAASGSIQTRNAMGWYRQAPGKERELVAAITGSGGRTYYADSVKGRFTISRDNAKNTVYLQMNSLKPEDTAVYYCATRYGREDYWGQVTQVTVSS,high polyreactivity
3,QVQLVESGGGLVQAGGSLRLSCAASGRTSIYNTMGWYRQAPGKERELVAAINPSGSTNYADSVKGRFTISRDNAKNTVYLQMNSLKPEDTAVYYCAAVVKWWGQSRYDYWGQGTQVTVSS,high polyreactivity
4,QVHLVESGGGLVQAGGSLRLSCAASGRTFGLYDMGWYRQAPGKERELVAGITRRGGRTYYADSVKGRFTISRDNAKNTVYLQMNSLKPEDTAVYYCAAGTIYLRHAQSPFDYWGQGTQVTVSS,high polyreactivity
5,QVQLVESGGGLVQAGGSLRLSCAASGSIFSRYTMGWYRQEPGKERELVAAITSSGGRTYYADSVKGRFTISRDNAKNTVYLQMNSLKPEDTAVYYCAARIPKQQGYGYWGQGTQVTVSS,high polyreactivity
6,QVQLVESGGGLVQAGGSLRISCAASGFTFRANAMGWYRQAPGKEREVVAAISQSGGRTYYADSVKARFTISRDNAKNTVYLQMNSLKPEDTAVYDCAAPDSAKELYYRMDYWGQGTQVTVSS,high polyreactivity
7,QVQLVESVGGLVQAGGSLRLSCAASGSIFGVYAMGWYRQAPGKERELVATISRSGAITYYADSVKGRFTISRDNAKNTVYLQMNSLKPEDTAVYYCAADFFSREWGQGTQVTVSS,low polyreactivity
8,QVQLVESGGGLFQAGGSLRLSCAASGLIFRPYAMAWSRQAPGTERELVAAIRGSGGRTYYADSVKGRFTISRDNEKNTVYLQMNSLKPEDTAVYYCAVDVGRHTGYYYWGQGTQVTVSS,high polyreactivity
9,QVQLVESGGGLVQAGGSLRLSCAASGFTFPVYVLGWYRQAPGKERELVAAISGGGGTSYADSVKGRFTISRDNAKNTVYLQMNSLKPEDTAVYYCAADYRTYVYVYGFRHFDYWGQGTQVTVSS,low polyreactivity
10,QVQLVESGGCLVQAGGSLRLSCAASGSIIGLYPMGWSRQAPGKERELVAAITQSAGSTYYADSVKGRFTISRDNALNTVFLQMNSLKPEDTAVYYCAAVWAYYGYESDYWGQGTQVTVSS,low polyreactivity
11,QVQLVESGGGLVQAGGSLRLSCAASGSTFKRNAMGWYRQAPVKERELVATITRRGGSTYADSVKGRFTISRDNAKNTVYLQMNSLKAEDTAVYYCARDGFSGGMDYWGQGTQVTVSS,low polyreactivity
12,QVQLVESGGGLVQAGGSLRLSCGASGFTFYGYAMGWYRHGPGKESELVAAITGSGARTNYADSVKGRFTISRDKAKNTVYLQMNSLKPEDTAVYYCNKVGVTRDGSTYRVREDDYWGQGTQVTVSS,high polyreactivity
13,QVQLVESGGGLVQAGGSLRLSCAASGFIFKRYAMGWYRQAPGKERELVAAITLSGGDTYYADSVKGRFTISRDNAKNTVYLQMNSLKPEDTAVYYCAARYMSTRTLYYYWGQGTQVTVSS,high polyreactivity
14,QVQLVESGGGLVQAGGSLRLSCAASGSIFWSYAMGWYRQAPGKERELVAAITTDGGTNYADSVKGRFTISRDNAKNTVYLQMNSLKPEDTAVYYCAARYGTSYIVRWTYYAFDYWGQGTQVTVSS,low polyreactivity
15,QVQLVESGGGLVQAGGSLRFSCAASGSTFKAYAMGWYRQAPGKERDLVARITYSGDITYYADSVKGRFTISRDNAKNTVYVQMNSLKRDDTAVFYCNDGFFVLEYDYWGQGTQLTVSS,low polyreactivity
16,QVQLVESGGGLVQAGGSLRLSCAASGRIFDLNAMGWYRQAPGKERELVAAITNTGSTNYADSVKGRFTISRDNAKNTVYLQMNSLKPEDTAVYYCARTYWLRYSGYRDDEYDYWGQGTQVTVSS,low polyreactivity
17,QVKLVESRGGLVQAGGSLRLSCAASGFTFFLYTMGWYRQAPGKERELVATITSAGTTNYADSVKGRFTISRDNAKNTVYLQMNSLIPEDTAVYYCNADRWEYDYWGQGTQVTVSS,low polyreactivity
18,QVQLVESGGGLVQAGGSLRLSCAASGSIFAYYAMGWYRQAPGKERELVAAISRGGGSTYYADSVKGRFTISRDNAKNTVYLQMNSLKPEDTAVYYCAAQYVYWTNRVRQHVTLNDYWGQGTQVTVSS,high polyreactivity
19,QVQLVESGGGLVQAGGSLRLSCAASGNIFYAYDMGWYRQAPGKERELVAAITNGDSTDYADSVKGRFTISRENAKNTVYLQMNSLKPEDTAVYYCNADYLPAPWALGGSQYDYCGQGTQVTVSS,low polyreactivity
20,QVQLVESGGGLVQAGGSLRLSCAASGLIFGYNAMGWYRQAPGKESELVAAISSSGGSTSYADSVKGRFTISRDNAKNTVYLQMNSLKPEDTAVYYCAAKPGRYADYDYNSWGQGTQVTVSS,low polyreactivity
21,QVQLEESGGGLVQAGGSLRLSCAASGFIFYIYAMGWYRQAPGKERELVAAITSGGSTNYADSVKGRFTITRDNAKNTVYLQMNSLKPEDTAVYYCAADSYYGYDYWGQVTQVTVSS,low polyreactivity
